Reference: article PMC11951922

These binders were tested against AF-tubulin (porcine) (UniProt P02550).
UniProt P02550, sequence (P02550 whole entry, chain 1 of 2): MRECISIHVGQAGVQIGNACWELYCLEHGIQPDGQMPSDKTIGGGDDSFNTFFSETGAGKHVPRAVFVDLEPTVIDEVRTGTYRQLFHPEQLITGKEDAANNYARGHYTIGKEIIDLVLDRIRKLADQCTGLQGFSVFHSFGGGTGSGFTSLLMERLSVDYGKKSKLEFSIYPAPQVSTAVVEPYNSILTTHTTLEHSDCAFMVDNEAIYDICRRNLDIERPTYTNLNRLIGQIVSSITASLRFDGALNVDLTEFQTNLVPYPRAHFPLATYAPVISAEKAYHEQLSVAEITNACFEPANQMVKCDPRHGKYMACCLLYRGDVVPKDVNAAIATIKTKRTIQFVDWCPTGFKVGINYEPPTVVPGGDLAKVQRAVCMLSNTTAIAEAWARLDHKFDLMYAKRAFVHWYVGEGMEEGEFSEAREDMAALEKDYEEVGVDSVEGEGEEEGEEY
UniProt P02550, sequence (Q767L7 whole entry, chain 2 of 2, further chain): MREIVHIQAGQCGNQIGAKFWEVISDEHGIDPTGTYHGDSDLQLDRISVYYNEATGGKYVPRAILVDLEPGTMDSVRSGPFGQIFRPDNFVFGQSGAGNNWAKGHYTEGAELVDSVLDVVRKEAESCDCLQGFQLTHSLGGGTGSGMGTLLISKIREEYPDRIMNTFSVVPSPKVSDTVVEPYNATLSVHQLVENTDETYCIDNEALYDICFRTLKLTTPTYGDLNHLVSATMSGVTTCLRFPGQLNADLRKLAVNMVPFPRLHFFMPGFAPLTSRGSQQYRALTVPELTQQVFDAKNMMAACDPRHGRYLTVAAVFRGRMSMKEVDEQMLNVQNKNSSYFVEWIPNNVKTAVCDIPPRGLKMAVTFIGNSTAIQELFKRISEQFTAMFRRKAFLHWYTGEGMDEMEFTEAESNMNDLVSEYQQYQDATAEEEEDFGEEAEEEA
For KAKAKAKAKAKAKAGGGSGGGKKHVPGGGSVQIVYKPVDL [KA7–GGGS–TP], the Pearson's correlation coefficient (PCC) of co-localisation of TMR-microtubule and AF-tubulin fluorescence in CLSM images, 100 uM peptide, doublet method (no peptide: 0.07) was 0.61. KAKAKAKAKAKAKAEAAAKEAAAKGGGKKHVPGGGSVQIVYKPVDL [KA7–(EAAAK)2–TP] was tested, and the Pearson's correlation coefficient (PCC) of co-localisation of TMR-microtubule and AF-tubulin fluorescence in CLSM images, 100 uM peptide, doublet method (no peptide: 0.07) was 0.72. Binder KAKAKAKAKAKAKAGGGSGGGSGGGSGGGKKHVPGGGSVQIVYKPVDL [KA7–(GGGS)3–TP] has a Pearson's correlation coefficient (PCC) of co-localisation of TMR-microtubule and AF-tubulin fluorescence in CLSM images, 100 uM peptide, doublet method (no peptide: 0.07) of 0.7.
